In paper PMC5476676 one finds koff data, which are given here for 1 substance.

This experiment deals with Protein L (UniProt Q51918). The experiment can be described thus: BLI.

In general, koff refers to the first-order rate constant of dissociation.

For the substance “Trastuzumab wild-type (recombinant Trastuzumab model) (antibody)”, the koff came out at 1.2e-05 s⁻¹.
